Results: publication PMC10514044, “Structural basis of the activation of TRPV5 channels by long-chain acyl-Coenzyme-A” (Nature Communications, 2023)

Target: the molecule itself
Test: cryo-EM structure; TRPV5 in lipid nanodiscs (MSP2N2, soy polar lipids), incubated with 400 uM oleoyl-CoA or 400 uM diC8-PI(4,5)P2 for 45 min; 20 mM HEPES pH 8.0, 150 mM NaCl, 2 mM TCEP; C4 symmetry imposed

B1: full-length rabbit TRPV5 (natural protein, UniProt Q9XSM3 1-730, looked up)
chain: MGACPPKAKGPWAQLQKLLISWPVGEQDWEQYRDRVNMLQQERIRDSPLLQAAKENDLRLLKILLLNQSCDFQQRGAVGETALHVAALYDNLEAATLLMEAAPELAKEPALCEPFVGQTALHIAVMNQNLNLVRALLARGASVSARATGAAFRRSPHNLIYYGEHPLSFAACVGSEEIVRLLIEHGADIRAQDSLGNTVLHILILQPNKTFACQMYNLLLSYDEHSDHLQSLELVPNHQGLTPFKLAGVEGNTVMFQHLMQKRKHVQWTCGPLTSTLYDLTEIDSWGEELSFLELVVSSKKREARQILEQTPVKELVSFKWKKYGRPYFCVLASLYILYMICFTTCCIYRPLKLRDDNRTDPRDITILQQKLLQEAYVTHQDNIRLVGELVTVTGAVIILLLEIPDIFRVGASRYFGQTILGGPFHVIIITYASLVLLTMVMRLTNMNGEVVPLSFALVLGWCSVMYFARGFQMLGPFTIMIQKMIFGDLMRFCWLMAVVILGFASAFHITFQTEDPNNLGEFSDYPTALFSTFELFLTIIDGPANYSVDLPFMYCITYAAFAIIATLLMLNLFIAMMGDTHWRVAQERDELWRAQVVATTVMLERKMPRFLWPRSGICGYEYGLGDRWFLRVENHHDQNPLRVLRYVEAFKCSDKEDGQEQLSEKRPSTVESGMLSRASVAFQTPSLSRTTSQSSNSHRGWEILRRNTLGHLNLGLDLGEGDGEEVYHF
notes: TRPV5, rabbit, full length, in a YepM vector; also called Transient receptor potential vanilloid 5; TRPV5_(CoA Open)
- binding result: binds
